Measurements as given in patent publication US20030220239A1 (published 2003).

B1: PSMA663-671 (SEQ ID NO. 66) (peptide)
peptide: MMNDQLMFL
B2: tyrosinase207-215, FLPWHRLFL (peptide)
peptide: FLPWHRLFL
notes: also called Tyr 207-215
B3: tyrosinase208-216, LPWHRLFLL (peptide)
peptide: LPWHRLFLL
notes: also called Tyr 208-216
B4: SSX-2 41-49, KASEKIFYV (peptide)
peptide: KASEKIFYV

Key:
[1] = molecular target: HLA-A2.1 (HLA-A*0201) on T2 cells (human); test: T2 cell HLA-A*0201 stabilisation, flow cytometry
[2] = molecular target: HLA-A2.1 (HLA-A*0201) on T2 cells (human); test: T2 cell HLA-A2 stabilisation, flow cytometry
[3] = molecular target: HLA-A2.1 (HLA-A*0201) on T2 cells (human); test: T2 cell HLA-A2.1 stabilisation, flow cytometry
Procedure: Peptide was mixed with the cells by repipeting before distributing to the plate (alternatively peptide can be added to individual wells), and the plate was rocked gently for 2 minutes. Incubation was in a 5% CO₂ incubator at 37° C. The next day the unbound peptide was removed by washing twice with serum free RPMI medium and a saturating amount of anti-class I HLA monoclonal antibody, fluorescein isothiocyanate (FITC)-conjugated anti-HLA A2, A28 (One Lambda, Canoga Park, Calif.) was added. After incubation for 30 minutes at 4° C., cells were washed 3 times with PBS supplemented with 0.5% BSA, 0.05% (w/v) sodium azide, pH 7.4-7.6 (staining buffer). (Alternatively W6/32 (Sigma) can be used as the anti-class I HLA monoclonal antibody the cells washed with staining buffer and then incubated with fluorescein isothiocyanate (FITC)-conjugated goat F(ab′) antimouse-IgG (Sigma) for 30 min at 4° C. and washed 3 times as before.) The cells were resuspended in 0.5 ml staining buffer. […] If flow cytometry is not to be performed immediately the cells can be fixed by adding a quarter volume of 2% paraformaldehyde and storing in the dark at 4° C.

| Binder | binding result [2] | further results |
| --- | --- | --- |
| B1 |  | binding result [1]: binds |
| B2 | binds |  |
| B3 | binds |  |
| B4 |  | binding result [3]: binds |
